Data taken from article PMC13071878, “Yeast Display Technology Enables Rapid Discovery of Low-Nanomolar Macrocyclic Peptide Inhibitors of Human Angiotensin-Converting Enzyme 2” (Journal of Medicinal Chemistry, 2026).
Values joined by “and” are separate entries in the source; they are usually repeats but may differ in a detail not shown here. Equal entries are not always repeated. Where two headings read alike, the source gives them in different places.

Tests used:
[1] = biological target: T1, hACE1 (Homo sapiens, UniProt P12821); test: biochemical
T1 construct: purchased R&D Systems
Description: The activity assay was performed by incubating 0.25 nM of hACE2 with 50 μM fluorogenic substrate Mca-Ala-Pro-Lys­(Dnp)–OH (MedChemExpress, Monmouth Junction, NJ, USA) and 3-fold MP dilutions (ranging from 0.03 nM to 100 μM). […] All reagents were diluted in 10 mM Tris–HCl, pH 7.4, 300 mM NaCl, 100 μM ZnCl2, 0.1% w/v BSA, and 0.1% v/v DMSO assay buffer. The measurements were performed on a Berthold TriStar LB 941 microplate reader (Berthold Technologies, Bad Wildbad, Germany) using flat-bottom 96-well half area Corning Costar plates (Corning, New York, USA). The enzymatic reactions were performed at 25 °C for 90 min, under shaking with a maximum excitation wavelength (λex) of 320 nm and maximum emission wavelength (λem) of 405 nm. The initial velocities were monitored as changes in fluorescence intensity. Half-maximum inhibitory concentration (IC50) values were determined using GraphPad Prism v8.2.1 software (GraphPad software Inc., San Diego, CA, USA). […] Reactions were initiated by adding hACE2 (final concentration 0.25 nM) to the fluorogenic substrate in assay buffer at 25 °C. Fluorescence was recorded as described earlier (λex = 320 nm, λem = 405 nm) using a Berthold TriStar LB 941 microplate reader (Berthold Technologies, Bad Wildbad, Germany). Initial velocities (V 0) were plotted against substrate concentrations [S] and analyzed via nonlinear regression using a one-site specific binding model using GraphPad Prism v8.2.1 software (GraphPad software Inc., San Diego, CA, USA). […] All reagents were diluted in 10 mM Tris-HCl, pH 7.4, 300 mM NaCl, 100 μM ZnCl2, 0.1% w/v BSA, and 0.1% v/v DMSO buffer. Measurements and data analysis were performed as mentioned above.

[2] = Plasma stability of synthetic peptides (LC-MS); details: human, plasma, plasma half-life t1/2, human plasma, 37 °C, 10 μM, LC-MS, n = 2
Description: The mixtures were incubated at 37 °C in a water bath (VWR, Pennsylvania, PA, USA). At designated time points (0, 0.25, 0.5, 1, 2, 4, 8, 24, and 48 h), 100 μL aliquots were withdrawn and quenched with 100 μL of 100% v/v ACN. Following centrifugation (10 min at 15000 g, 4 °C), 100 μL of the supernatant was collected and diluted with 50 μL of solvent A (99.9% v/v H2O and 0.1% v/v FA). Samples were characterized by LC–MS using an Agilent 1260 Infinity II LC system coupled to an InfinityLab LC/MSD mass spectrometer (Agilent Technologies, Santa Clara, CA, USA). The system operated with a standard ESI source in negative ionization mode. Separation was performed on a reversed-phase Symmetry C18 column (5 μm, 150 mm × 4.6 mm, Waters, Milford, MA, USA) using a linear gradient of 10–100% solvent B over 22 min at a flow rate of 0.6 mL/min (Solvent A: 99.9% v/v H2O and 0.1% v/v FA; Solvent B: 99.9% v/v ACN and 0.1% v/v FA). Data acquisition, processing, and analysis were performed using MestReNova v.12.0.1 (Mestrelab Research, Santiago de Compostela, Spain). All samples were analyzed in duplicate (n = 2). The percentage of remaining peptide was calculated by integrating the peak areas, with the area at 0 h defined as 100%. Half-lives (t 1/2) were determined via nonlinear regression analysis using GraphPad Prism (GraphPad software Inc., San Diego, CA, USA). Data are presented as mean values ± s.d.

[3] = biological target: T2, hACE2 (Homo sapiens, UniProt Q9BYF1); test: Isothermal titration calorimetry of synthetic MPs with hACE2; format: binding; details: 25 °C
Description: Isothermal titration calorimetry (ITC) experiments were performed at 25 °C using a MicroCal iTC200 instrument ([…], Malvern Panalytical, Malvern, UK). The hACE2 protein (initial stock 11 mg/mL, 20 mM Tris pH 7.4, 200 mM NaCl) was diluted into the assay buffer (100 mM Tris pH 7.4, 200 mM NaCl) to a final concentration of 5 μM. […] Titrations consisted of an initial 0.4 μL injection (excluded from subsequent data analysis), followed by 18 injections of 2 μL each, with a stirring rate of 750 rpm to ensure rapid mixing. A 120 s interval was maintained between injections to ensure the baseline returned to equilibrium. Blank experiments involving the titration of the synthetic MPs into the assay buffer were performed to determine and subtract the heats of dilution. Data processing was conducted using the Origin software package version 7 (OriginLab Corporation, Northampton, MA, USA). The integrated heat signals were fitted to a single-site binding model to determine the association constant (K A), the dissociation constant ([…]), the enthalpy change (ΔH), and the binding stoichiometry (n). The Gibbs free energy (ΔG) and the entropy change (ΔS) were calculated using the standard thermodynamic relationship: ΔG=ΔH−TΔS=−RTln(KA)

[4] = biological target: T2, hACE2; test: biochemical
Description: The activity assay was performed by incubating 0.25 nM of hACE2 with 50 μM fluorogenic substrate Mca-Ala-Pro-Lys­(Dnp)–OH (MedChemExpress, Monmouth Junction, NJ, USA) and 3-fold MP dilutions (ranging from 0.03 nM to 100 μM). […] All reagents were diluted in 10 mM Tris–HCl, pH 7.4, 300 mM NaCl, 100 μM ZnCl2, 0.1% w/v BSA, and 0.1% v/v DMSO assay buffer. The measurements were performed on a Berthold TriStar LB 941 microplate reader (Berthold Technologies, Bad Wildbad, Germany) using flat-bottom 96-well half area Corning Costar plates (Corning, New York, USA). The enzymatic reactions were performed at 25 °C for 90 min, under shaking with a maximum excitation wavelength (λex) of 320 nm and maximum emission wavelength (λem) of 405 nm. The initial velocities were monitored as changes in fluorescence intensity. Half-maximum inhibitory concentration (IC50) values were determined using GraphPad Prism v8.2.1 software (GraphPad software Inc., San Diego, CA, USA). […] Fluorescence was recorded as described earlier (λex = 320 nm, λem = 405 nm) using a Berthold TriStar LB 941 microplate reader (Berthold Technologies, Bad Wildbad, Germany). Initial velocities (V 0) were plotted against substrate concentrations [S] and analyzed via nonlinear regression using a one-site specific binding model using GraphPad Prism v8.2.1 software (GraphPad software Inc., San Diego, CA, USA). […]

[5] = biological target: T2, hACE2; format: binding; details: yeast-displayed MP, serial dilutions of biotinylated hACE2
[6] = biological target: T2, hACE2; design: method as in ref 2 (SI list; Harman et al. 2023); details: phage display bicyclic peptides, ref 2 (SI list; Harman et al. 2023), cited from earlier work; for Ki: where not reported, calculated by Cheng-Prusoff, Km 23 μM
[7] = biological target: T2, hACE2; design: method as in ref 2 (SI list; Harman et al. 2023); details: phage display bicyclic peptides; ref 2 (SI list; Harman et al. 2023); cited from earlier work
[8] = biological target: T2, hACE2; design: method as in ref 4 (SI list; Huang et al. 2003); details: phage display DX peptides, ref 4 (SI list; Huang et al. 2003), cited from earlier work; for Ki: where not reported, calculated by Cheng-Prusoff, Km 23 μM
[9] = biological target: T2, hACE2; design: method as in ref 4 (SI list; Huang et al. 2003); details: phage display DX peptides; ref 4 (SI list; Huang et al. 2003); cited from earlier work
[10] = biological target: T2, hACE2; design: method as in ref 3 (SI list; Bedding et al. 2024); details: mRNA display cyclic peptides; ref 3 (SI list; Bedding et al. 2024); cited from earlier work
[11] = biological target: T2, hACE2; design: method as in ref 3 (SI list; Bedding et al. 2024); details: mRNA display cyclic peptides, ref 3 (SI list; Bedding et al. 2024), cited from earlier work; for Ki: where not reported, calculated by Cheng-Prusoff, Km 23 μM

T2 sequence (Q9BYF1 19-615): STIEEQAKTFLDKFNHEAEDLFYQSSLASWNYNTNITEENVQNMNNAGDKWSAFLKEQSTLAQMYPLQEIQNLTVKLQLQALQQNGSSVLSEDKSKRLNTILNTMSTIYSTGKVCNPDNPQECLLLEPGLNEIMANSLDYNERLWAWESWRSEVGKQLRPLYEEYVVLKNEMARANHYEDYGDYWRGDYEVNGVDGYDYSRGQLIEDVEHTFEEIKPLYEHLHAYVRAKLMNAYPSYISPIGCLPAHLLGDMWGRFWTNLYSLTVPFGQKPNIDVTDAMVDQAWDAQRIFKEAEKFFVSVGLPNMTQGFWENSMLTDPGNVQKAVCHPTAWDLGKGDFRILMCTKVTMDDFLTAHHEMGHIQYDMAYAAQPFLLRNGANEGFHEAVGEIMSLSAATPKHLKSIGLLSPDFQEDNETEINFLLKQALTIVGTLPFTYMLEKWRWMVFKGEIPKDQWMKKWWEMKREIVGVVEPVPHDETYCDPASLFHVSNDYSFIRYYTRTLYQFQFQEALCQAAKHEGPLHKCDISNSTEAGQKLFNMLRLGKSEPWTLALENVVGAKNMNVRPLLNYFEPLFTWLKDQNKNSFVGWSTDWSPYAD
T1 sequence (P12821 30-1306): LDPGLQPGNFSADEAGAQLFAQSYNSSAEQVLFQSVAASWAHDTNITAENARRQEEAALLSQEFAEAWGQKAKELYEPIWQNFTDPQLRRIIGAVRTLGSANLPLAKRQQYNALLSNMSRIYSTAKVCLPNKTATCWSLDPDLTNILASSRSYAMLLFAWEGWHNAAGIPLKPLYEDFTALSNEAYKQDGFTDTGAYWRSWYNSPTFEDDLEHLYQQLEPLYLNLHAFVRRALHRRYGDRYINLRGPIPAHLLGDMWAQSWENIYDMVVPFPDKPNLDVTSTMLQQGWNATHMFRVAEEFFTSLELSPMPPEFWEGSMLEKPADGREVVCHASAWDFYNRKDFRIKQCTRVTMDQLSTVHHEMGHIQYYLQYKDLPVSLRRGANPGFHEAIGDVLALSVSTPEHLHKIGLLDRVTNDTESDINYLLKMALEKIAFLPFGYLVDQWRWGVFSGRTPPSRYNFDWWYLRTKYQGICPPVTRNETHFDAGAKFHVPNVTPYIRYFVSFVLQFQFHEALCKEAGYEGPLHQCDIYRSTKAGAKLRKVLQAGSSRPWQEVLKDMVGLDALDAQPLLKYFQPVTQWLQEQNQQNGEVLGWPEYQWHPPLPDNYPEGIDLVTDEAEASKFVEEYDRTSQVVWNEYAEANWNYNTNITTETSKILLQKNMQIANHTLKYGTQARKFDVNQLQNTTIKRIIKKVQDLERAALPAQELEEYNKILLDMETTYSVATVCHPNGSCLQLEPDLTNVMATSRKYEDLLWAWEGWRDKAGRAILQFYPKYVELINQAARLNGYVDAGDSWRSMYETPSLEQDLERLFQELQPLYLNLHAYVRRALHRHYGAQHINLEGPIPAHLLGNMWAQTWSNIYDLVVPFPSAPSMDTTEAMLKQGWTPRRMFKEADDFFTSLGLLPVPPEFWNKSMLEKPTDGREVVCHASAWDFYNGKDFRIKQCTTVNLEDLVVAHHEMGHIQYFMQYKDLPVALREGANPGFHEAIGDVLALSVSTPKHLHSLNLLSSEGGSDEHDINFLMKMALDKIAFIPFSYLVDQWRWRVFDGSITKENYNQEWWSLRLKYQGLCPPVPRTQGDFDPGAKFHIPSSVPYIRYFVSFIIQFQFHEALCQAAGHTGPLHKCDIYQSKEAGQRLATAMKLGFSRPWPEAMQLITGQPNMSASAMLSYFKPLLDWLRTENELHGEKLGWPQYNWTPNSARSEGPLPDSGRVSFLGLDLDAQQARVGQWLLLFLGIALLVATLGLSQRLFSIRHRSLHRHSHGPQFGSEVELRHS

With CC(=O)NCC(=O)N[C@@H](CC(=O)O)C(=O)N[C@@H](Cc1ccc(O)cc1)C(=O)N[C@@H](CO)C(=O)N[C@@H](Cc1cnc[nH]1)C(=O)N[C@H]1CSSC[C@@H](C(=O)N[C@H](C(=O)N[C@@H](Cc2ccc(O)cc2)C(=O)N2CCC[C@H]2C(=O)N[C@@H](CC(=O)O)C(=O)N2CCC[C@H]2C(=O)N[C@@H](CCC(=O)O)C(=O)NCC(=O)NCC(=O)NCC(N)=O)[C@@H](C)O)NC(=O)[C@H](CCCCN)NC(=O)[C@H](Cc2c[nH]c3ccccc23)NC(=O)[C@H](Cc2c[nH]c3ccccc23)NC(=O)[C@@H]2CCCN2C(=O)[C@H](Cc2ccc(O)cc2)NC(=O)[C@H](Cc2ccc(O)cc2)NC(=O)[C@H](CCCNC(=N)N)NC(=O)[C@H](CC(C)C)NC(=O)[C@@H]2CCCN2C(=O)[C@H](CO)NC1=O [DX600] the IC50 [1] was greater than 100 µM.

CC[C@H](C)[C@@H]1NC(=O)[C@H](Cc2ccccc2)NC(=O)[C@H](Cc2ccccc2)NC(=O)[C@@H](NC(=O)[C@H](C)N)CSSC[C@@H](C(=O)N[C@@H](CO)C(=O)NCC(N)=O)NC(=O)[C@H]([C@@H](C)CC)NC(=O)[C@H](Cc2c[nH]c3ccccc23)NC(=O)[C@H](CCCNC(=N)N)NC(=O)[C@H](CC(N)=O)NC(=O)[C@H](Cc2ccccc2)NC(=O)CNC1=O [GR1.1] showed an IC50 [1] greater than 100 µM, a Ki [1] greater than 100 µM and a half-life [2] of 324 min.

For CC(C)C[C@@H]1NC(=O)[C@H](CC(N)=O)NC(=O)[C@H](Cc2ccc(O)cc2)NC(=O)CNC(=O)[C@H](CC(C)C)NC(=O)[C@@H]2CCCN2C(=O)[C@H](CCC(=O)O)NC(=O)[C@@H](NC(=O)[C@H](C)N)CSSC[C@@H](C(=O)N[C@@H](CO)C(=O)NCC(N)=O)NC(=O)[C@H](CC(C)C)NC(=O)[C@H](Cc2ccccc2)NC1=O [GR1.4], the IC50 [1] was greater than 100 µM, the Ki [1] was greater than 100 µM and the “ΔH (ITC)” value [3] was -33.5 ± 0.5 kJ/mol. The “-TΔS (ITC)” value ([3]; calculated) was -8.1 kJ/mol and the half-life [2] was 390 min.

CC(C)C[C@@H]1NC(=O)[C@H](Cc2ccccc2)NC(=O)[C@@H](NC(=O)[C@H](C)N)CSSC[C@@H]2NC(=O)[C@H](CCCCN)NC(=O)[C@H](C(C)C)NC(=O)[C@H](CC(=O)O)NC(=O)[C@H](CCCNC(=N)N)NC(=O)[C@H](Cc3c[nH]cn3)NC(=O)[C@H](CSSC[C@@H](C(=O)N[C@@H](CO)C(=O)NCC(N)=O)NC(=O)[C@H](Cc3c[nH]c4ccccc34)NC(=O)[C@H](CC(C)C)NC(=O)[C@H](Cc3c[nH]c4ccccc34)NC2=O)NC(=O)[C@H](CCCNC(=N)N)NC1=O [GR3.1.3] showed a Ki [4] of 1040 nM.

With ACEPAGYNLFLCSG [GR1.6] the “binding to hACE2 in yeast surface titration (in words)” value (“binding to hACE2” for short) [5] was “completely abolished”.

For ACEPLAYNLFLCSG [GR1.7], the “binding to hACE2” value [5] was “completely abolished”.

With ACEPLGANLFLCSG [GR1.8] the “binding to hACE2” value [5] was “completely abolished”.

With “ACEPLGFNRWICSG [GR1.3, yeast-encoded “one-ring” macrocyclic peptide, GR1 family]” the “binding to hACE2” value [5] was “comparable binding affinities”.

In the case of ACEPLGYALFLCSG [GR1.9], the “binding to hACE2” value [5] is reported as “significantly attenuated”.

For ACGREELPCRIKLCA [BCY15298], the IC50 [6] is given as greater than 40000 nM.

In the case of ACGRQFCHTLMPRHLCA [BCY15292], the Kd [7] is given as 1.2 nM, the IC50 [6] is given as 2.6 nM and the Ki [6] is given as 1.2 nM.

For ACHKFPCRDPQQYLFCA [BCY15296], the Kd [7] is given as 29 nM, the IC50 [6] is given as 47 nM and the Ki [6] is given as 21 nM.

For ACHRDFPRCTWETQWCA [BCY15297], the Kd [7] is given as 11000 nM, the IC50 [6] is given as 12000 nM and the Ki [6] is given as 5200 nM.

In the case of ACLRSYNLCPRINCA [BCY15294], the Kd [7] is listed as 850 nM, the IC50 [6] is listed as 2400 nM and the Ki [6] is listed as 1100 nM.

For ACTRPWCHSLLPRATCA [BCY15293], the Kd [7] is listed as 1.6 nM, the IC50 [6] is listed as 4.9 nM and the Ki [6] is listed as 2.2 nM.

For ACVRSHCSSLLPRIHCA [BCY15291], the Kd [7] is listed as 0.4 nM and 0.44 nM, the IC50 [6] is listed as 2 nM and the Ki [6] is listed as 0.9 nM.

In the case of AGQKECKFGYPHCLPWGT [DX530], the IC50 [8] is listed as 30000 nM.

In the case of AGSDWCGTWNNPCFHQGT [DX531], the IC50 [8] is listed as 500 nM and the Ki [8] is listed as 540 nM.

For AGWEVCHWAPMMCKHGGT [DX529], the IC50 [8] is listed as 400 nM and the Ki [8] is listed as 380 nM.

For GDFSPCKALRHSPWWVCPSGDP [DX602], the Kd [9] is listed as 74.4 nM, the IC50 [8] is listed as 128 nM and the Ki [8] is listed as 121 nM.

For GDGFTCSPIRMFPWFRCDLGDP [DX601], the Kd [9] is listed as 56.3 nM, the IC50 [8] is listed as 56.8 nM and the Ki [8] is listed as 30.9 nM.

For GDLHACRPVRGDPWWACTLGDP [DX513], the Kd [9] is given as 170 nM, the IC50 [8] is given as 90 nM and the Ki [8] is given as 126 nM.

In the case of GDRLHCKPQRQSPWMKCQHLDP [DX512], the Kd [9] is given as 96 nM, the IC50 [8] is given as 60 nM and the Ki [8] is given as 139 nM.

For GDRYLCLPQRDKPWKFCNWFDP [DX599], the Kd [9] is listed as 48.6 nM, the IC50 [8] is listed as 114 nM and the Ki [8] is listed as 46.5 nM.

In the case of GSRGFCRDSSCSFPAP [DX525], the IC50 [8] is given as 1000 nM and the Ki [8] is given as 1700 nM.

For GSRIGCRDSRCNWWAP [DX524], the IC50 [8] is given as 600 nM and the Ki [8] is given as 540 nM.

In the case of Y*AVLLHKGKFVFTYGC [peptide12], the Kd [10] is listed as 610 nM, the IC50 [11] is listed as 39.5 µM and the Ki [11] is listed as 7390 nM.

For Y*FQRSVRLPYLRC [peptide2], the Kd [10] is listed as 0.04 nM.

For Y*VFRSLRTPFIVC [peptide1], the Kd [10] is given as 0.4 nM.

In the case of Y*VKRNVYEGYKPC [peptide15], the Kd [10] is given as 7.3 nM.

In the case of Y*VLSSPRGALRALRC [peptide3], the Kd [10] is listed as 290 nM.

In the case of Y*WTLFVFRDGVLPVWSC [peptide9], the Kd [10] is listed as 50.3 nM, the IC50 [11] is listed as 2.05 µM and the Ki [11] is listed as 383 nM.

In the case of y*ARPLRHRPWYVSWC [peptide6], the Kd [10] is listed as 3.3 nM.

For y*DAYTRRTHRNPRLCQC [peptide7], the Kd [10] is given as 32 nM.

For y*FNRSGKLLFLYC [peptide4], the Kd [10] is listed as 240 nM.

For y*IRQFTSRVPLHC [peptide21], the Kd [10] is given as 3.6 nM.

For y*LSVNRVFAYRIIYKC [peptide23], the Kd [10] is listed as 9.1 nM.

For y*RLHRSPWAHFGFAC [peptide20], the Kd [10] is given as 228 nM, the IC50 [11] is given as 1.98 µM and the Ki [11] is given as 370 nM.

For y*SYQYRGRFHRQC [peptide19], the Kd [10] is given as 78 nM.

In the case of y*TYQYRDRFFRPC [peptide22], the Kd [10] is listed as 14.8 nM.

In the case of y*VHIIYWKNGLPRITC [peptide14], the Kd [10] is listed as 82.3 nM, the IC50 [11] is listed as 9.72 µM and the Ki [11] is listed as 1820 nM.

In the case of y*VQRPIRNVRLIRC [peptide24], the Kd [10] is given as 430 nM.

In the case of y*VVLRPLRDLGRVFC [peptide5], the Kd [10] is given as 9 nM.
